# Results published in the RNAGym collection of RNA variant scans (doi:10.1073/pnas.2313332121).
# B1: TPR t1 (parent)
# chain: GACCAAUCUGCCCUCAGAGCUCGAGAACAUCUUCGGAUGCAGAGGAGGCAGGCUUCGGUGGCGCGAUAGCGCCAACGUCCUCAACCUCCAAUGCAUCCCACCACAUGAUGAUGCCUGAAGAGCCUUGGUUUUUUG
# Variants of: B1
# Assay: polymerase ribozyme fitness, log enrichment relative to wild type (log ratio); higher = more active; in vitro selection for triplet polymerase activity
# Summary of the method: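 Libraries of mutants in each subunit of a heterodimeric triplet polymerase ribozyme were generated by PCR and transcribed. In triplicate, each went through one in vitro selection round: annealing with biotinylated primer, partner subunit and triplets; frozen incubation at −7 °C; gel excision of extended constructs; streptavidin-bead capture; RT-PCR. Fitness, taken from Illumina sequencing of input and output libraries, is the logarithm of a genotype's enrichment over wild-type enrichment, averaged across replicates with inverse-variance weights. The logarithm is base 2, and genotypes needed ≥10 input reads and ≥1 read per output to be kept.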
row,Variant,polymerase ribozyme fitness (log ratio)
1,A6G G48U U54A C79U U87A,-4.01
2,A6C C22U C62U C79U C99U,-5.96
3,U7A U14A C86U A90U,-3.61
4,A6U C49U C53U A84C,-0.896
5,A6U C15U A26G C86U A100U G120A C123A U125G,-5.49
6,A6G C12A G117A,-2.34
7,A6C C85U C101U G110U,-3.01
8,A6U A16C C40U C70U C85G,-5.17
9,A6U A26U G39A C49G G61A C88U C124G,-3.73
10,U7A U9C G45C C70U C89A C123A,-2.15
11,A6U C76G,-0.287
12,A6U A29U G61A C115G G117U,-4.58
13,U7A C12G C89G A111C,-2.35
14,U7A C123G,2.34
15,U7A G35C A41C C64U C79U G113U,-7.12
16,A6U G44A C73U C86G,-3.18
17,A6U C11U U55G A83U U106A G128U U130C,-1.47
18,U7A C53U C73U C86U A90G G122A,-2.05
19,A5U C102A,-2.01
20,A6C A41C C94A U129G,-4.39
21,A6U G44A,-1.02

row,Variant,polymerase ribozyme fitness (log ratio)
1,A6U G44U,-1.52
2,A6C C62G,-2.28
3,A6U C56G G110U,-1.25
4,A6C U38A A43U,-3.16
5,A6C G71A G93C C99U C123A U130A,-7.12
6,A6C C53G,-0.863
7,A6C U9A C15G G45A C104A C124G,-3.65
8,A6U U7G C8G C56A G63A,-2.06
9,U7A C73G U116G,-2.7
10,U7A C104G,-6.47
11,A6C G10C G36U,-2.24
12,A6U G113U,-2.09
13,A6C U7G C22G G58U A95G C104A G120C,-3.33
14,A6U C20U A37U G61A,-0.862
15,A6U C72A,0.375
16,U7A A16U C49U C124U,1.1
17,A5U G19A A41U C94A C104U,-3.89
18,A6C G36A A66G C72G C76U U78A,-4.1
19,U7A G10C G57U C88G,-2.78
20,A5U U54C G69A U112C,-0.469
21,A6U G25A C56A C73A C79G C94U G113U C124A,-8.13

row,Variant,polymerase ribozyme fitness (log ratio)
1,A6U A24G A37U A43C A66U,-5.69
2,A6U C13A C22G A75U,-4.17
3,A6U C49G C62A U78C C88A A119U,-3.67
4,A6U C12A G61A U78A C80U C86A G120A,-2.58
5,A6U C22G U87A U92C A121U,-2.63
6,A6U C56A C94A U106A C124A,0.262
7,U7A G48A A50G G77A C101U U109A,-5.13
8,A6C G10A U30C G71A,-5.5
9,A6U C15A C56A A105C,-4.85
10,A6U C8U G48U,-0.267
11,A6U U54A,-0.507
12,A6U G19A,-2.37
13,A5U G57A G63U U78C A95C C115A,-3.19
14,U7A U9C,0.526
15,U7A A37U U78A,0.116
16,U7A G36U G61U C124G,0.266
17,A5U G45U A46C,-1.71
18,A6C U54G C62U U92G,-4.44
19,A6U A18U G93C C102U,-6.29
20,A6G G48U G52C C73G,-3.58
21,A6U C56G U129A,-2.48

row,Variant,polymerase ribozyme fitness (log ratio)
1,A6C C11U G69A A91C,-6.12
2,A5U C102U G122A,-3.47
3,U7A C8G A16C A46U,-0.61
4,U7A G61A C73A C104G U109C,-6.61
5,U7A G63A C89U,-1.1
6,A6C C70U U129A,-2.82
7,U7A C22A C40G A68U A84C G110C,-6.51
8,A6C C11A,-2.65
9,A5U G60C U96A C101A A119U,-2.53
10,A6U G44A A50U C94G,-4.1
11,A6G A50C C70G,-3
12,A6C C70U C73G,-2.81
13,A6U G42U G51A,-5.8
14,A6C G93C A121G G127C,0.208
15,U7A C15U C56A G69U U106G G120C,-0.793
16,A6U G48C,-0.598
17,A6G A41G U87A G110A U125G,-3.92
18,A5U G10A C11A C72G G110A,-1.86
19,A6U C22U,-3.04
20,A6C G17U U96G C98U C123U,-6.92
